# Data as given in paper PMC4924701.
# Biological target: GADS (UniProt O75791)
# Assay: anti-FLAG co-IP, Western blot
# Details: reference: wild-type FLT3
"binding against the reference (sites Y955,Y969)",binding against the reference (sites Y955),Substance
lost,,FLT3 (from UniProt P36888) FLT3-Y955F-Y969F
,weaker,FLT3 (from UniProt P36888) FLT3-Y955F
